T1: bovine LPL (bovine, UniProt P11151 29-478, limits assumed)
T1 sequence (looked up): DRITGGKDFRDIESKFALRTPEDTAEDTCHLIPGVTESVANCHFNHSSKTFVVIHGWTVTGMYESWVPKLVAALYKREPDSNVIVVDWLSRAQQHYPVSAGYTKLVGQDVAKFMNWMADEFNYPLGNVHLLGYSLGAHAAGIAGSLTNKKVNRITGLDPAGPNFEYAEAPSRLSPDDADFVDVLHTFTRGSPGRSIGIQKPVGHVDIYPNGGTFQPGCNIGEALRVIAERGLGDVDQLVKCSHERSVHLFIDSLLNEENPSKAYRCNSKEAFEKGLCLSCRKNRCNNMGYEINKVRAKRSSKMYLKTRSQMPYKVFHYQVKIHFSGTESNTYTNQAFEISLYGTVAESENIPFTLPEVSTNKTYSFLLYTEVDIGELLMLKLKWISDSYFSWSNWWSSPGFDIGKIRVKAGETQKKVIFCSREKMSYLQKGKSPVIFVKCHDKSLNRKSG

T2: hANGPTL3(17-460)-His (human, UniProt Q9Y5C1 17-460)
T2 construct: Bought protein (R&D Systems); also called full-length mature human ANGPTL3 with a C-terminal decahistidine tag; Human ANGPTL3 (17-460)-His
T2 sequence: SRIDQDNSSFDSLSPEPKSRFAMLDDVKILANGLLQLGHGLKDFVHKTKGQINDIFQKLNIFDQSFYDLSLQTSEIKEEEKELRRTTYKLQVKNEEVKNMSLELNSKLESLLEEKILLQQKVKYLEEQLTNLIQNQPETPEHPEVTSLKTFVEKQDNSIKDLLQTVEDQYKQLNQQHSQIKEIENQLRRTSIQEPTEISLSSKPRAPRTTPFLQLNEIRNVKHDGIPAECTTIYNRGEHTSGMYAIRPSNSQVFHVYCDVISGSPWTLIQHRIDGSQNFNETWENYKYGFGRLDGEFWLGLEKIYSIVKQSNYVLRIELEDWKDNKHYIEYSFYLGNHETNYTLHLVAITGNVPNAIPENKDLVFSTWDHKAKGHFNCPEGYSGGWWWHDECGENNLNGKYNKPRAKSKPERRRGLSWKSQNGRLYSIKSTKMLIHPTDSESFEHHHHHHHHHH

T3: mANGPTL3(17-455)-His (Mus musculus, UniProt Q9R182 17-455)
T3 construct: Bought protein (R&D Systems); also called full-length mature ANGPTL3 from Mus musculus with a C-terminal decahistidine tag
T3 sequence: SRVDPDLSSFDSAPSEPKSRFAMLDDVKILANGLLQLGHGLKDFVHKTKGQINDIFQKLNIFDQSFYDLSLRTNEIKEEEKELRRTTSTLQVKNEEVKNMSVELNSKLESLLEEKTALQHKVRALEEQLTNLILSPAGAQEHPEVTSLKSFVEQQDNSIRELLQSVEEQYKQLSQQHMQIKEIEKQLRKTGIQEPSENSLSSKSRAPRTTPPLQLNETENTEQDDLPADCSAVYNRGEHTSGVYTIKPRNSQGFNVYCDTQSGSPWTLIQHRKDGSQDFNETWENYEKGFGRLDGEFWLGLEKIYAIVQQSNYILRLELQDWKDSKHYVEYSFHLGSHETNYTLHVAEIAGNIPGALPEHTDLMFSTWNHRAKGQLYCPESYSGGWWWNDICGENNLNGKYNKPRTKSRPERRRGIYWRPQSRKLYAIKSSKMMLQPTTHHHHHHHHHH

B1: hANGPTL3(17-169)-mFc (Fc fusion)
chain: SRIDQDNSSFDSLSPEPKSRFAMLDDVKILANGLLQLGHGLKDFVHKTKGQINDIFQKLNIFDQSFYDLSLQTSEIKEEEKELRRTTYKLQVKNEEVKNMSLELNSKLESLLEEKILLQQKVKYLEEQLTNLIQNQPETPEHPEVTSLKTFVEEPRGPTIKPCPPCKCPAPNLLGGPSVFIFPPKIKDVLMISLSPIVTCVVVDVSEDDPDVQISWFVNNVEVHTAQTQTHREDYNSTLRVVSALPIQHQDWMSGKEFKCKVNNKDLPAPIERTISKPKGSVRAPQVYVLPPPEEEMTKKQVTLTCMVTDFMPEDIYVEWTNNGKTELNYKNTEPVLDSDGSYFMYSKLRVEKKNWVERNSYSCSVVHEGLHNHHTTKSFSRTPGK

What was measured:
bovine LPL [1] = target: T1, bovine LPL; experiment: cell-based or functional assay
hANGPTL3(17-460)-His [2] = target: T2, hANGPTL3(17-460)-His; experiment: SPR Biacore, antigen captured, 25C, pH 7.4, HBS-EP
Method: (§1) All kinetic binding experiments were performed at 25° C. or 37° C. on a BIACORE™ T200 label-free molecular interaction instrument (GE Healthcare) using a CM5 sensor chip. Briefly, an antigen capture surface was generated by covalently coupling either an anti-mouse IgG-specific antibody (anti-mFc; GE Healthcare; catalog #BR-1008-38) or an anti-pentahistidine-specific antibody (Qiagen; catalog #34660) to the surface of a CM5 sensor chip using a standard amine coupling method.

hANGPTL3(17-169)-mFc = target: B1; experiment: SPR Biacore, antigen captured, 25C, pH 7.4, HBS-EP
Method: as §1

hANGPTL3(17-460)-His [3] = target: T2, hANGPTL3(17-460)-His; experiment: SPR Biacore, antigen captured, 37C, pH 7.4, HBS-EP
Method: as §1

mANGPTL3(17-455)-His = target: T3, mANGPTL3(17-455)-His; experiment: SPR Biacore, antigen captured, 37C, pH 7.4, HBS-EP
Method: as §1

hANGPTL3(17-460)-His [4] = target: T2, hANGPTL3(17-460)-His; experiment: Biacore cross-competition, 25C; first antibody at 25 µg/ml on captured antigen
Method: (§2) Cross competition experiments were performed at 25° C. on a Biacore essentially as described in Example 3 above. […] The results are shown in Table 8 with binding response for the first antibody (mAb1), followed by binding response of the second antibody (mAb2) on the ANGPTL3 surface pre-loaded with the first antibody. Numbers in bold indicate that the antibody pairs are able to bind to hANGPTL3 simultaneously. Numbers in italics indicate that that the antibody pairs are able to bind to hANGPTL3 simultaneously when added sequentially in one direction but not the other. Brackets indicate self-self competition.

hANGPTL3(17-460)-His [5] = target: T2, hANGPTL3(17-460)-His; experiment: Biacore cross-competition; second antibody after pre-loading with Negative Control
Method: as §2

hANGPTL3(17-460)-His [6] = target: T2, hANGPTL3(17-460)-His; experiment: Biacore cross-competition; second antibody after pre-loading with competitor H1M896N
Method: as §2

hANGPTL3(17-460)-His [7] = target: T2, hANGPTL3(17-460)-His; experiment: Biacore cross-competition; second antibody after pre-loading with competitor H4H1279P
Method: as §2

hANGPTL3(17-460)-His [8] = target: T2, hANGPTL3(17-460)-His; experiment: Biacore cross-competition; second antibody after pre-loading with competitor H4H1292P
Method: as §2

bovine LPL [9] = target: T1, bovine LPL; experiment: cell-based or functional assay; remark: listed apart in the source
hANGPTL3(17-460)-His [10] = target: T2, hANGPTL3(17-460)-His; experiment: Biacore cross-competition; second antibody after pre-loading with competitor H4H1250P
Method: as §2

| Binder | Kd (hANGPTL3(17-460)-His [2]) [nM] | koff (hANGPTL3(17-460)-His [2]) [s⁻¹] | kon (hANGPTL3(17-460)-His [2]) [M⁻¹ s⁻¹] | t1/2 (hANGPTL3(17-460)-His [2]) [min] | Kd (hANGPTL3(17-169)-mFc) [nM] | koff (hANGPTL3(17-169)-mFc) [s⁻¹] | kon (hANGPTL3(17-169)-mFc) [M⁻¹ s⁻¹] | t1/2 (hANGPTL3(17-169)-mFc) [h] | Kd (hANGPTL3(17-460)-His [3]) [nM] | koff (hANGPTL3(17-460)-His [3]) [s⁻¹] | kon (hANGPTL3(17-460)-His [3]) [M⁻¹ s⁻¹] | t1/2 (hANGPTL3(17-460)-His [3]) [min] | Kd (mANGPTL3(17-455)-His) [nM] | koff (mANGPTL3(17-455)-His) [s⁻¹] | kon (mANGPTL3(17-455)-His) [M⁻¹ s⁻¹] | t1/2 (mANGPTL3(17-455)-His) [min] | mAb1 binding response (RU) (hANGPTL3(17-460)-His [4]) | mAb2 binding response (RU) (hANGPTL3(17-460)-His [5]) | mAb2 binding response (RU) (hANGPTL3(17-460)-His [6]) | mAb2 binding response (RU) (hANGPTL3(17-460)-His [7]) | also measured |
| --- | --- | --- | --- | --- | --- | --- | --- | --- | --- | --- | --- | --- | --- | --- | --- | --- | --- | --- | --- | --- | --- |
| hANGPTL4(26-148)-mFc (Fc fusion) GPVQSKSPRFASWDEMNVLAHGLLQLGQGLREHAERTRSQLSALERRLSACGSACQGTEGSTDLPLAPESRVDPEVLHSLQTQLKAQNSRIQQLFHKVAQQQRHLEKQHLRIQHLQSQFGLLDEPRGPTIKPCPPCKCPAPNLLGGPSVFIFPPKIKDVLMISLSPIVTCVVVDVSEDDPDVQISWFVNNVEVHTAQTQTHREDYNSTLRVVSALPIQHQDWMSGKEFKCKVNNKDLPAPIERTISKPKGSVRAPQVYVLPPPEEEMTKKQVTLTCMVTDFMPEDIYVEWTNNGKTELNYKNTEPVLDSDGSYFMYSKLRVEKKNWVERNSYSCSVVHEGLHNHHTTKSFSRTPGK |  |  |  |  |  |  |  |  |  |  |  |  |  |  |  |  |  |  |  |  | EC50 (nM), inhibition of LPL activity (bovine LPL [1]): 0.2 nM |
| H4H1250P (antibody, IgG4, V domains shown) VH: QVQLVESGGGVVQPGRSLRLSCAASGFTFSSYGMHWVRQAPGKGLEWVAVISNDGSNKYYVDSVKGRFTMGRDNSKNTLYLQMNSLRVEDTAVYYCAKGAGTLYYYYYGMDVWGQGTTVTVSS VL: DIQMTQSPSTLSASVGNRVTITCRASQSISSWLAWYQQKPGKAPKFLIYKASSLESGVPSRFSGSGSGTEFTLTITSLQPDDFATYYCQQYNIYSWTFGQGTKVEIK | 0.726 | 0.000657 | 904000 | 18 | 0.519 | 0.000651 | 1.25e+06 | 0.3 | 0.324 | 0.00113 | 3.5e+06 | 10 | 0.486 | 0.00155 | 3.18e+06 | 7 | 210 | 187 | -4 | 213 | mAb2 binding response (RU) (hANGPTL3(17-460)-His [8]): 220 RU |
| B1 |  |  |  |  |  |  |  |  |  |  |  |  |  |  |  |  |  |  |  |  | IC50 for blocking LPL (bovine LPL [9]): 47 nM; EC50 (nM), inhibition of LPL activity (bovine LPL [1]): 16 nM |
| H1M896N (antibody, V domains shown) VH: EVQLLESGGGLVQPGGSLRLSCAASGFTFSTYAMSWVRQAPGKGLEGVSGISGTGYRTYYADSVKGRFTISRDNSKNSLYLQMNSLRAEDTAVYYCAKDRGLLWFGELTYWGQGTLVTVSS VL: DIQMTQSPSTLSASVGDRVTITCRASQSINNWLAWYQQKPGKAPNLLIYKASSLESGVPSRFSGSGSGTEFTLTISSLQPDDFATYYCQQYNDYWTFGQGTKVEIK |  |  |  |  |  |  |  |  | 0.158 | 0.00053 | 3.36e+06 | 22 | 0.682 | 0.00247 | 3.62e+06 | 5 | 171 | 149 |  | 186 | mAb2 binding response (RU) (hANGPTL3(17-460)-His [10]): -4 RU; mAb2 binding response (RU) (hANGPTL3(17-460)-His [8]): 182 RU |
| H4H1279P (antibody, IgG4, V domains shown) VH: QVQLVESGGGLVKPGGSLRLSCAASGFTFSDYYMSWIRQAPGKGLEWVSYIGSSGVNMYYADSVKGRFTISRDNAKNSLYLEMNSLRAEDTAVYYCARDSSQLGFDYWGQGTLVTVSS VL: DIQMTQSPSSLSASVGDRVTITCRTSQNIINFLNWYQQKPGKAPKLLIYTTSTLQSGVPSRFSGSGSGTDFTLSINSLQPEDFATYFCQQTYSNPLTFGGGTKLEIKR | 0.394 | 0.000114 | 288000 | 102 | 0.00841 | 5.53e-06 | 658000 | 34.8 | 0.381 | 0.00181 | 4.74e+06 | 6 | 0.167 | 0.000359 | 2.15e+06 | 32 | 45 | 47 | 47 |  | mAb2 binding response (RU) (hANGPTL3(17-460)-His [10]): 9 RU; mAb2 binding response (RU) (hANGPTL3(17-460)-His [8]): -3 RU |
| H4H1292P (antibody, IgG4, V domains shown) VH: QVQLVESGGGLVKPGGSLRLSCAASGFTFSDYYMSWIRQAPGKGLEWVSYISSSGSTIYYADSVKGRFTISRDNAKNSLYLQMNSLRAEDTAVYYCARDSSQLGFDYWGQGTLVTVSS VL: DIQMTQSPSSLSASVGDRVTITCRASQSIISFLNWYQQKPGKAPKLLIYTASSLQSGVPSRFSGSGSGTDFTLTISSLQPEDFATYYCQQTYSNPLTFGGGTKVEIKR | 0.727 | 0.000248 | 341000 | 47 | 0.257 | 0.000177 | 686000 | 1.08 | 1.02 | 0.00194 | 1.89e+06 | 6 | 0.38 | 0.00149 | 3.92e+06 | 8 | 48 | 48 | 50 | -1 | mAb2 binding response (RU) (hANGPTL3(17-460)-His [10]): 8 RU |
